Assay results from patent US20220048967A1 (published 2022).
Where a chain is given by its changes, count along the chain named.

T1: human GIP receptor (human, UniProt P48546 22-466)
T1 sequence (looked up): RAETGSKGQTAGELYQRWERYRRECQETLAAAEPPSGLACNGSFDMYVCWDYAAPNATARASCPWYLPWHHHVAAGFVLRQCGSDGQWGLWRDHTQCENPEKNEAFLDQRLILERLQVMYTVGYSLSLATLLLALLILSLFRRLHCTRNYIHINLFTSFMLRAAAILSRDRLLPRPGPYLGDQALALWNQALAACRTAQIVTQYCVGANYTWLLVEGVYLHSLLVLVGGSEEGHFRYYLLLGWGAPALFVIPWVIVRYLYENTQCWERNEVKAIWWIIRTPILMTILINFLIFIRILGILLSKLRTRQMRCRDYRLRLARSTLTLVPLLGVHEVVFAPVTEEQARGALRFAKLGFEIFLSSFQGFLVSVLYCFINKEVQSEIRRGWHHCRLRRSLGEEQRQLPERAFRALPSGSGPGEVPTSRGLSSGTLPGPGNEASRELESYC

T2: human gastric inhibitory peptide receptor (GIPR) (human, UniProt P48546 22-466)
T2 sequence (looked up): T1 sequence (looked up)

B1: Example 2 (peptide)
peptide: YXEGTXTSDYSIXLDXKAQXEFIXYLIEGGPSSGAPPPS
modifications: Aib2; αMeF(2F)6; αMeL13; Orn16; K17((2-[2-(2-Amino-ethoxy)-ethoxy]-acetyl)2-(γ-Glu)-CO-(CH2)16-CO2H); Aib20; D-Glu24; C-terminal amide
B2: Example 3 (peptide)
peptide: B1 peptide
modifications: Aib2; αMeF(2F)6; αMeL13; Orn16; K17((2-[2-(2-Amino-ethoxy)-ethoxy]-acetyl)2-(γ-Glu)-CO-(CH2)18-CO2H); Aib20; D-Glu24; C-terminal amide
B3: Example 1 (peptide)
peptide: B1 peptide with X16E
modifications: Aib2; αMeF(2F)6; αMeL13; K17((2-[2-(2-Amino-ethoxy)-ethoxy]-acetyl)2-(γ-Glu)-CO-(CH2)18-CO2H); Aib20; D-Glu24; C-terminal amide
B4: Example 4 (peptide)
peptide: B1 peptide with Y10X, Y25X
modifications: Aib2; αMeF(2F)6; 4Pal10; αMeL13; Orn16; K17((2-[2-(2-Amino-ethoxy)-ethoxy]-acetyl)2-(γ-Glu)-CO-(CH2)16-CO2H); Aib20; D-Glu24; αMeY25; C-terminal amide
B5: Example 380 (peptide)
peptide: B1 peptide with Y1X, X6F, X24E, Y25X
modifications: D-Tyr1; Aib2; αMeL13; Orn16; K17 conjugated to (2-[2-(2-Amino-ethoxy)-ethoxy]-acetyl)2-(γ-Glu)-CO-(CH2)18-CO2H; Aib20; αMeY25; C-terminal amide
B6: Example 5 (peptide)
peptide: B1 peptide with Y10V, Y25X
modifications: Aib2; αMeF(2F)6; αMeL13; Orn16; K17((2-[2-(2-Amino-ethoxy)-ethoxy]-acetyl)2-(γ-Glu)-CO-(CH2)16-CO2H); Aib20; D-Glu24; αMeY25; C-terminal amide
B7: Example 374 (peptide)
peptide: XXEGTFTSDYSIXLDKKAQXEFIEXLIAGGPSSGAPPPS
modifications: D-Tyr1; Aib2; αMeL13; K17 conjugated to (2-[2-(2-Amino-ethoxy)-ethoxy]-acetyl)2-(γ-Glu)-CO-(CH2)16-CO2H; Aib20; αMeY25; C-terminal amide
B8: Example 375 (peptide)
peptide: B7 peptide with K16X
modifications: D-Tyr1; Aib2; αMeL13; Orn16; K17 conjugated to (2-[2-(2-Amino-ethoxy)-ethoxy]-acetyl)2-(γ-Glu)-CO-(CH2)16-CO2H; Aib20; αMeY25; C-terminal amide
B9: Example 378 (peptide)
peptide: B7 peptide with X25Y
modifications: D-Tyr1; Aib2; αMeL13; K17 conjugated to (2-[2-(2-Amino-ethoxy)-ethoxy]-acetyl)-(γ-Glu)-CO-(CH2)18-CO2H; Aib20; C-terminal amide
B10: Example 376 (peptide)
peptide: B7 peptide with E21A
modifications: D-Tyr1; Aib2; αMeL13; K17 conjugated to (2-[2-(2-Amino-ethoxy)-ethoxy]-acetyl)2-(γ-Glu)-CO-(CH2)16-CO2H; Aib20; αMeY25; C-terminal amide
B11: Example 377 (peptide)
peptide: B7 peptide with K16X, E21A
modifications: D-Tyr1; Aib2; αMeL13; Orn16; K17 conjugated to (2-[2-(2-Amino-ethoxy)-ethoxy]-acetyl)2-(γ-Glu)-CO-(CH2)16-CO2H; Aib20; αMeY25; C-terminal amide
B12: Example 379 (peptide)
peptide: B7 peptide with A28E
modifications: D-Tyr1; Aib2; αMeL13; K17 conjugated to (2-[2-(2-Amino-ethoxy)-ethoxy]-acetyl)2-(γ-Glu)-CO-(CH2)18-CO2H; Aib20; αMeY25; C-terminal amide

Tests used:
Test in all cases: cell-based or functional assay
human glucagon receptor = human glucagon receptor (human, UniProt P47871 26-477)
Sequence of human glucagon receptor (P47871 26-477): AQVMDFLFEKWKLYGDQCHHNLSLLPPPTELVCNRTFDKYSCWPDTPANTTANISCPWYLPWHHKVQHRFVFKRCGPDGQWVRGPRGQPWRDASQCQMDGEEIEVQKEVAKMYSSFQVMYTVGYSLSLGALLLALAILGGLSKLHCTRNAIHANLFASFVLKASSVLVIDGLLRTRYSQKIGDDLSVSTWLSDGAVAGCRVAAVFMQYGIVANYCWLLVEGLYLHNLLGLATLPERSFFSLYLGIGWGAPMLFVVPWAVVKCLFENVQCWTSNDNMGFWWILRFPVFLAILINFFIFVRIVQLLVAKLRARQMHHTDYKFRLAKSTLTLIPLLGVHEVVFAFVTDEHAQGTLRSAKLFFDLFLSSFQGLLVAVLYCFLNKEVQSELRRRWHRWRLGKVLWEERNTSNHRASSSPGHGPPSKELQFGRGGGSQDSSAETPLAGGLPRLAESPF

human GIP receptor = target: T1, human GIP receptor
human GLP-1 receptor = human GLP-1 receptor (human, UniProt P43220 24-463)
[1] = target: human GLP-1 receptor (GLP-1R) (human, UniProt P43220 24-463)
[2] = target: T2, human gastric inhibitory peptide …
For hGIPR cAMP EC50 ratio in this document: reference of the scale not given here.
For hGLP1R cAMP EC50 ratio in this document: reference of the scale not given here.

| Binder | cAMP EC50 (human glucagon receptor) [nM] | cAMP EC50 (human GIP receptor) [nM] | cAMP EC50 (human GLP-1 receptor) [nM] | hGLP1R cAMP EC50 ratio [1] [ratio] | hGLP1R cAMP Rel EC50 [1] [nM] | hGIPR cAMP EC50 ratio [2] [ratio] | hGIPR cAMP Rel EC50 [2] [nM] |
| --- | --- | --- | --- | --- | --- | --- | --- |
| B1 | > 10900 | 2.64 | 6.52 |  |  |  |  |
| B2 | > 10900 | 9.24 | 19.4 |  |  |  |  |
| B3 | > 11400 | 38.5 | 53.3 |  |  |  |  |
| B4 | > 10900 | 1.03 | 2.02 |  |  |  |  |
| B5 |  |  |  | 0.115 | 0.236 | 0.374 | 0.142 |
| B6 | > 10900 | 1.98 | 1.61 |  |  |  |  |
| B7 |  |  |  | 0.169 | 0.19 | 1.76 | 0.0468 |
| B8 |  |  |  | 0.178 | 0.152 | 1.13 | 0.0471 |
| B9 |  |  |  | 0.142 | 0.191 | 0.793 | 0.067 |
| B10 |  |  |  | 0.159 | 0.17 | 0.734 | 0.0723 |
| B11 |  |  |  | 0.199 | 0.136 | 0.976 | 0.0544 |
| B12 |  |  |  | 0.114 | 0.238 | 0.672 | 0.079 |
